The record followed here is patent US20240018263A1.

Assay [1] deals with VH-9.7 antigen on human patient-derived glioblastoma stem-like cells (GSC lines 12.1, 22, 33, 44, 99). Briefly: flow cytometry on cells dissociated from 44 GSC orthotopic xenografts, 125 nM predimerized VH-9.7. On the technique in general: Flow cytometry measures light scatter and fluorescence of single cells or particles in a stream.
Assay [2] shares this target. Briefly: flow cytometry titration of monomeric VH-9.7 on live 33 GSC, one-site equilibrium fit, four independent titrations.

B1: VH-9.7-CMYC-HIS6 (soluble, purified single domain antibody VH-9.7) (antibody, V domains shown)
VH: QVQLVESEAEVKKPGASVKVSCKASGYSFTNYYMHWVRQAPGQGLEWMGLIDPSGTSTTYAQKFQGRVTMTRDTSASTVYMELTSLRSEDTAMYYCVGEESGSGSFSDWGQGTLVTVSS
Take B1: the percent of cells labelled in assay [1] was determined as 17.9%. The Kd (commonly the constant that tells how readily two partners part at equilibrium) in assay [2] stood at 74.3 nM.
